This is an account of results in the supplement of paper PMC10567573.

This series in a line: protein stability index of a GFP-peptide fusion (GPS, HEK-293T) (PSI 1-6); higher = more stable.
[1] abbreviates: treatment: DMSO, c terminus: a fixed tail appended.
Setting [2] is: treatment: MLN4924 1 uM, 8 h, c terminus: a fixed tail appended.
Where [3] appears, read: treatment: DMSO, c terminus: native.
Where [4] appears, read: treatment: MLN4924 1 uM, 8 h, c terminus: native.

± gives the standard deviation.
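Also: 24-mer peptide tiles fused after GFP, lentivirally expressed, FACS-sorted into six equal bins by GFP/DsRed ratio, decoded by Illumina sequencing, PSI is the read-weighted mean bin number.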

Regarding EGHLDDGGYTPDLKMSYSRGLIPV [RBMY1A1], the protein stability index reads like this: under setting [1], 3.25 ± 0.14; under setting [2], 3.15 ± 0.38.

With EGIKVEDLLFIVDTMLEEVENKEK [CEP70], the protein stability index is, setting by setting: under setting [1], 3.07 ± 0.27; under setting [2], 3.03 ± 0.42.

Take EGVDIKNGTEDLPYAMKPIDYYTE [NSDHL]: the protein stability index turned out to be 4.72 ± 0.25 under setting [1] and 4.76 ± 0.27 under setting [2].

Turning to EISRGEYLYTYDSQITDSEHNSSL [ZNF8], the protein stability index under setting [1] was determined as 4.29 ± 0.49 and the protein stability index under setting [2] is 4.25 ± 0.54.

For EIVGNLGEGTFGKVVECLDHARGK [CLK3], the protein stability index is 3.81 ± 0.1 under setting [1] and 3.97 ± 0.29 under setting [2].

EKEFMKGNQLISNNIKFKKSSILT [CLCN6]: the protein stability index by setting is: under setting [1], 3.46 ± 0.17; under setting [2], 3.48 ± 0.38.

Regarding EKKEKEKKKKDKEKEKEKHKVKAE [BRD3], the protein stability index is 5.41 ± 0.22 under setting [1] and 5.53 ± 0.42 under setting [2].

Regarding EKVSQELKEPLHKALQMLLSQPVT [BCL2L13], the protein stability index runs as follows: under setting [1], 2.88 ± 0.26; under setting [2], 3 ± 0.45.

With ELARIVLLRHRMNWLGRPSKVLSL [RAB40A], the protein stability index stood at 2.46 ± 0.73 under setting [1] and 2.43 ± 0.43 under setting [2].

On to ELDGPKQIFFGRRKDMIAEKLAPS [ZNF396], for which the protein stability index is, setting by setting: under setting [1], 3.62 ± 0.11; under setting [2], 3.62 ± 0.27.

Regarding ELEGTEELCCVAELDNPMQQKWTK [C2CD2L], the protein stability index came to 4.58 ± 0.45 under setting [1] and 4.77 ± 0.28 under setting [2].

On to ELFKKDPGFDRGQFHKQIAVMRGQ [PI4K2A], for which the protein stability index runs as follows: under setting [1], 2.8 ± 0.33; under setting [2], 3.03 ± 0.19.

For the sequence ELFPTGKQLEPLVAPLADGKVAVG [VPS39], the protein stability index under setting [1] was 3.84 ± 0.25 and the protein stability index under setting [2] is 3.8 ± 0.24.

ELIILYEKKGLHEKALQVLVDQSK [VPS39]: the protein stability index under setting [1] was determined as 2.26 ± 0.25 and the protein stability index under setting [2] was 2.53 ± 0.22.

As for ELRRDSSESQLASTESDKPTTGRV [C18orf25], the protein stability index runs as follows: under setting [1], 5.28 ± 0.38; under setting [2], 5.39 ± 0.21.

In turn, EMIQTSKTEITDLRRTMQELEIEL [KRT15] had a protein stability index under setting [1] of 3.65 ± 0.25 and a protein stability index under setting [2] of 3.65 ± 0.13.

In the case of EMPYNIWCDGCKNHIGMGVRYNAE [YJU2B], the protein stability index by setting is: under setting [1], 2.27 ± 0.32; under setting [2], 2.49 ± 0.25.

For the sequence ENYDIIKTYHYLYLAMLERFQDGD [FEM1B], the protein stability index by setting is: under setting [1], 2.37 ± 0.56; under setting [2], 2.52 ± 0.54.

EPEAASSRGSPVRVKREFEPASAR [USP39]: the protein stability index is, setting by setting: under setting [1], 5.04 ± 0.16; under setting [2], 5.11 ± 0.16.

Take EPLMTNKLSETFLQIYQYVPKDQR [DLC1]: the protein stability index turned out to be 3.05 ± 0.33 under setting [1] and 3.47 ± 0.47 under setting [2].

As for EQAKENENGELQKIILPRSRVKG [ZC2HC1C], the protein stability index runs as follows: under setting [3], 3.42 ± 0.47; under setting [4], 3.42 ± 0.28.

For the sequence EQFPELMNMLWSRMLKDNKKNWRR [CLINT1], the protein stability index runs as follows: under setting [1], 2.14 ± 0.037; under setting [2], 2.39 ± 0.26.

As for EQLEAEAQALRQELERQRRLLGSV [PBXIP1], the protein stability index came out at 4.04 ± 0.22 under setting [1] and 4.02 ± 0.21 under setting [2].

Turning to EQVFSLGDGVSGGFFGIRDSSFL [ZBED1], the protein stability index was 3.36 ± 0.31 under setting [3] and 3.61 ± 0.27 under setting [4].

Regarding ERICSEEERAKAKHLARQLEEKDR [CHCHD3], the protein stability index runs as follows: under setting [1], 5.4 ± 0.13; under setting [2], 5.17 ± 0.35.

In the case of ERLCMGVDCTEIFGGNPRFLSLHR [ZNF263], the protein stability index under setting [1] turned out to be 2.54 ± 0.24 and the protein stability index under setting [2] is 2.83 ± 0.13.

As to ERSGCALTDAVAPGNKGRGQRGNT [TCF25], the protein stability index came to 5.22 ± 0.11 under setting [1] and 5.23 ± 0.13 under setting [2].

With ERSQVRGSAPPRATPGGGTGEAAR [PCDHGC5], the protein stability index amounted to 5.13 ± 0.31 under setting [1] and 5.4 ± 0.18 under setting [2].

For the sequence ESFFVDYEENEGAGPYLLNGSYLE [ADAMTSL2], the protein stability index is, setting by setting: under setting [1], 3.658 ± 0.034; under setting [2], 3.82 ± 0.072.

For the sequence ESGEHFRSLLGYDPQILQMLKEEH [RAD54B], the protein stability index came to 3.77 ± 0.35 under setting [1] and 3.56 ± 0.55 under setting [2].

As for ESKIREHLEKKGPQVRDWSHYFKI [KRT18], the protein stability index reads like this: under setting [1], 2.82 ± 0.26; under setting [2], 2.67 ± 0.28.

ETPNPPQSAQIACSSPSVVASLPL [MAGEA10]: the protein stability index was 4.62 ± 0.25 under setting [1] and 4.59 ± 0.38 under setting [2].

For ETQTQRGGEFQCGLEAASVYSDHT [RNF180], the protein stability index under setting [1] was found to be 2.33 ± 0.16 and the protein stability index under setting [2] is 2.2 ± 0.078.

Take EVANKDLTERKYKGDSTIRELKAK [SASS6]: the protein stability index is, setting by setting: under setting [1], 3.27 ± 0.39; under setting [2], 3.27 ± 0.53.

EVMESEEFMLLPANQLIDIISSDE [KLHL20] showed a protein stability index under setting [1] of 4.54 ± 0.23 and a protein stability index under setting [2] of 4.64 ± 0.32.

EWDKNKSAFPFSDKLGELSDKIGS [CLINT1] showed a protein stability index under setting [1] of 3.57 ± 0.37 and a protein stability index under setting [2] of 3.6 ± 0.22.

EYTLTGLKFDMKYMNFRVKACNKA [FSD1]: the protein stability index is, setting by setting: under setting [1], 2.79 ± 0.12; under setting [2], 2.77 ± 0.45.

FAIGARARAEAEQMAKKAEAFQLY [FLOT1]: the protein stability index was found to be 2.78 ± 0.42 under setting [1] and 3.02 ± 0.58 under setting [2].

As for FDYEYDWIGKQLPTPVGAVQQDPA [CSNK1G3], the protein stability index is, setting by setting: under setting [1], 3.63 ± 0.2; under setting [2], 3.65 ± 0.44.

In the case of FEFQVRVCDSCYDSIKDEDRTSLA [WDFY1], the protein stability index came out at 2.78 ± 0.23 under setting [1] and 3 ± 0.61 under setting [2].

FEFSVDSFQIVLDPMLDFYSDKNA [TENT5D] yielded a protein stability index under setting [1] of 2.91 ± 0.93 and a protein stability index under setting [2] of 2.52 ± 0.42.

Regarding FFLFIGVILFSSAVYFAEADDPTS [KCNA3], the protein stability index is, setting by setting: under setting [1], 2.8 ± 0.1; under setting [2], 3.09 ± 0.2.

In the case of FGCFFYVYYIFERLCAPLFRNIKQ [SOAT1], the protein stability index runs as follows: under setting [1], 2.37 ± 0.2; under setting [2], 2.69 ± 0.068.

For FILGRLCVPVFANMSREPFSTRAL [SOAT2], the protein stability index under setting [1] was 2.94 ± 0.56 and the protein stability index under setting [2] is 2.56 ± 0.52.

Take FKAYIKIYQGEDLPHPKSMLQATA [ATL3]: the protein stability index runs as follows: under setting [1], 2.78 ± 0.35; under setting [2], 2.5 ± 0.57.

Turning to FKDKLEETKGQINNSIKDLTDGHF [SERPINB5], the protein stability index amounted to 4.42 ± 0.2 under setting [1] and 4.5 ± 0.2 under setting [2].

As to FKPLNSTPATTTEPPKPTFPAYTQ [ZNF207], the protein stability index amounted to 3.84 ± 0.26 under setting [1] and 3.9 ± 0.14 under setting [2].

With FKRWIYLNDQNLCIPASSSFVYGA [GAN], the protein stability index under setting [1] is 2.41 ± 0.37 and the protein stability index under setting [2] is 2.47 ± 0.38.

Regarding FLVFILNAGLVWFFPWREAKPGST [MFSD9], the protein stability index worked out at 3.21 ± 0.74 under setting [1] and 3.11 ± 0.19 under setting [2].

For the sequence FMEERELLGQDEETAMRKSLGEEE [RSPH3], the protein stability index is, setting by setting: under setting [1], 5.58 ± 0.12; under setting [2], 5.46 ± 0.4.

Regarding FMSPCDKFRAKGRKPCKLMLQVVK [MCOLN1], the protein stability index was 2.26 ± 0.26 under setting [1] and 2.38 ± 0.24 under setting [2].

For FPEELHRKAALEQDLAFWYGPRWQ [HMOX1], the protein stability index runs as follows: under setting [1], 2.3 ± 0.25; under setting [2], 2.62 ± 0.31.

In the case of FSDGEKCRREAFRRLGNGVSDDLS [PHTF1], the protein stability index by setting is: under setting [1], 4.05 ± 0.13; under setting [2], 3.82 ± 0.17.

In the case of FSEEDEEETTSQDWGTPRELTFSY [RTN2], the protein stability index by setting is: under setting [1], 4.22 ± 0.15; under setting [2], 4.22 ± 0.49.

For FSHITSARKARKYEIPHFRLKKVE [PHTF1], the protein stability index was found to be 2.53 ± 0.47 under setting [1] and 2.82 ± 0.4 under setting [2].

As to FSIDEELVYENFYADFGPLNLAMV [CDC14A], the protein stability index reads like this: under setting [1], 2.75 ± 0.6; under setting [2], 2.43 ± 0.6.

For the sequence FSVSSTSRRIYRCRNCINLQNEAQ [IQUB], the protein stability index by setting is: under setting [1], 2.02 ± 0.19; under setting [2], 2.34 ± 0.34.

For FTDPFFIVETLCIIWFSFELVVRF [KCNA1], the protein stability index was 3.26 ± 0.13 under setting [1] and 3.18 ± 0.69 under setting [2].

Regarding FTDTSIILFLNKKDLFEEKIKKSP [GNAI1], the protein stability index by setting is: under setting [1], 2.2 ± 0.97; under setting [2], 2.35 ± 1.1.

For the sequence FVALKSVRVPNGGGGGGGLPISTV [CDK4], the protein stability index by setting is: under setting [1], 2.52 ± 0.24; under setting [2], 2.41 ± 0.33.

FVETRLRDLPDTPRRFTFYPCVLA [TRIM39]: the protein stability index by setting is: under setting [1], 2.63 ± 0.68; under setting [2], 2.16 ± 0.071.

With FVSALGITAGAHRLWSHRSYKARL [SCD], the protein stability index reads like this: under setting [1], 2.73 ± 0.93; under setting [2], 2.5 ± 0.24.

In the case of FYRYKMPRLIAKVEGKGNGIKTVI [EIF5], the protein stability index is, setting by setting: under setting [1], 2.28 ± 0.45; under setting [2], 2.26 ± 0.23.

As to GAFETVLASAYTGRLSMAAADIVN [ZBTB22], the protein stability index was found to be 2.88 ± 0.61 under setting [1] and 2.91 ± 0.59 under setting [2].

In turn, GALTGKENNMLQPETHIFTAPEEV [DMRTC1] displayed a protein stability index under setting [1] of 5.19 ± 0.17 and a protein stability index under setting [2] of 5.01 ± 0.16.

GARYEVTVVSVRGFEESEPLTGFL [TNXB] yielded a protein stability index under setting [1] of 2.53 ± 0.79 and a protein stability index under setting [2] of 2.38 ± 0.59.

For the sequence GATALHFAAEAGHIDIVKELIKWR [FEM1B], the protein stability index worked out at 2.39 ± 0.35 under setting [1] and 2.43 ± 0.33 under setting [2].

Take GATVGRKSRRSRSESETSTMAAKK [C18orf25]: the protein stability index under setting [1] worked out at 5.23 ± 0.31 and the protein stability index under setting [2] was 5.48 ± 0.27.

Regarding GCILFEYYRGFTLFQTHENREHLV [CLK3], the protein stability index came to 2.97 ± 0.85 under setting [1] and 2.21 ± 0.69 under setting [2].

GDIHLSPEEPAASTDPNIVRKKER [TAF7L]: the protein stability index by setting is: under setting [1], 5.38 ± 0.32; under setting [2], 5.43 ± 0.27.

For the sequence GDKASPDQNASTHTPQSSVKTSVP [CLINT1], the protein stability index is, setting by setting: under setting [1], 5.54 ± 0.19; under setting [2], 5.38 ± 0.28.

As for GDQEGPRPARSTLDELLGRGMATK [FBF1], the protein stability index reads like this: under setting [1], 4.62 ± 0.27; under setting [2], 4.73 ± 0.11.
